In patent US20140235701, “NGF APTAMER AND APPLICATION THEREOF” (RIBOMIC INC., published 2014):

B1: SEQ ID NO: 17 (ssRNA)
RNA: AGAAGUGCAAUACUUUCGCGGCAUAUGUGCAAACCUUGCCACGACUAUGUGCGCAUAC
modifications: 2'-F C and U; 2'-OH G; 2'-H (deoxy) A
B2: SEQ ID NO: 162 (ssRNA)
RNA: GGGUCCUGGAUAAGAGTUUCCGUCUCGUAUCCTGUUACCC
modifications: 2'-F C5,U7,U18,U19,C20,C24,U25,U36; dT17,dT33; 2'-OH G8,G34; 2'-H A; 2'-OMe all other; idT 5' and 3'
B3: SEQ ID NO: 5 (ssRNA)
RNA: GGGAGAACUUCGACCAGAAGUUAGAAGAGGACUAGUUGCUAAUGCCCUGGUUCGUCGCUAUAUGUGCGCAUACAUGGAUCCUC
modifications: 2'-F C and U; 2'-OH G; 2'-H (deoxy) A
B4: SEQ ID NO: 3 (ssRNA)
RNA: GGGAGAACUUCGACCAGAAGUUGGCACAUCCUGCUGCGUAGUUUCCGUCUCCGUGGCUGUUAUGUGCGCAUACAUGGAUCCUC
modifications: 2'-F C and U; 2'-OH G; 2'-H (deoxy) A
B5: SEQ ID NO: 4 (ssRNA)
RNA: GGGAGAACUUCGACCAGAAGUACGUUAGUACGUUUGCAUAUGUACAACCUUGCAUACGAUACGUAGAUUAUGUGCGCAUACAUGGAUCCUC
modifications: 2'-F C and U; 2'-OH G; 2'-H (deoxy) A
B6: SEQ ID NO: 2 (ssRNA)
RNA: GGGAGAACUUCGACCAGAAGUCCAAACGGGACUUUAUACCUCUGAGUCGCCUACGCUCCUAUGUGCGCAUACAUGGAUCCUC
modifications: 2'-F C and U; 2'-OH G; 2'-H (deoxy) A
B7: SEQ ID NO: 7 (ssRNA)
RNA: GGGAGAACUUCGACCAGAAGACGCACCUCUUAUCACACAUGCGUCAGCCUUGUGAUACUAUGUGCGCAUACAUGGAUCCUC
modifications: 2'-F C and U; 2'-OH G; 2'-H (deoxy) A
B8: SEQ ID NO: 16 (ssRNA)
RNA: CGACCAGAAGUGCAAUACUUUCGCGGCAUAUGUGCAAACCUUGCCACGACUAUGUGCGCAUAC
modifications: 2'-F C and U; 2'-OH G; 2'-H (deoxy) A
B9: SEQ ID NO: 15 (ssRNA)
RNA: GGGAGAACUUCGACCAGAAGUGCAAUACUUUCGCGGCAUAUGUGCAAACCUUGCCACGACUAUGUGCGCAUAC
modifications: 2'-F C and U; 2'-OH G; 2'-H (deoxy) A
B10: SEQ ID NO: 111(1) (ssRNA)
RNA: GGGUCCUGUCUAAGAGUUUCCGUCUCGUAGACUGUUACCC
modifications: 2'-OMe except 2'-F C5,U7,U17-19,C20,C24,U25,U33,U36, 2'-OH G8,G34, dA12,dA13; 3' idT

molecular target: T1, NGF (nerve growth factor) (Homo sapiens, UniProt P01138 P01138:122-241); assay: SPR; more than 40N; details: tags: R&D Systems; chain copies: 2
Method: As the measuring apparatus, BIAcore2000 manufactured by BIAcore was used and, as the sensor chip, CM5 that reacts with an amino group was used. […] For the reaction of an amino group on the protein side and a carboxyl group on the chip side, ethyl-3-carbodiimide hydrochloride and N-hydroxysuccinimide were used. After the reaction, blocking by ethanolamine-HCl was performed. The immobilized amount of NGF was set to 3,000-4,000 RU. An aptamer for analyte was prepared to 0.15 μM-0.5 μM. As a running buffer, solution A was used. Here, solution A is a mixed solution of 145 mM sodium chloride, 5.4 mM potassium chloride, 1.8 mM calcium chloride, 0.8 mM magnesium chloride, 20 mM Tris (pH 7.6), 0.05% Tween 20. As a regeneration solution, a mixed solution of 1M NaCl and 50 mM NaOH was used. NGF was immobilized on FC2, and the results of FC1 were subtracted to give a final sensorgram.
The binding activity of these aptamers to NGF was evaluated by the surface plasmon resonance method in the same manner as in Example 1.

T1 sequence (P01138 122-241, one chain of several): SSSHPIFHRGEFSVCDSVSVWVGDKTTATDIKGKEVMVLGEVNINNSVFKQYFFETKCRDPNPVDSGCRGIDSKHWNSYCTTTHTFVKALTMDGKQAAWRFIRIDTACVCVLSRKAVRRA

Binder | binding result
UGCAAUACUUUCGCGGCAUAUGUGCAAACCUUGCCACGACUAUGUGCG (ssRNA, 2'-F C and U; 2'-OH G; 2'-H (deoxy) A) [SEQ ID NO: 18] | binds
B1 | binds
GUGCAAUACUUUCGCGGCAUAUGUGCAAACCUUGCCACGACUAUGUGCGC (ssRNA, 2'-F C and U; 2'-OH G; 2'-H (deoxy) A) [SEQ ID NO: 20] | binds
GCAAUACUUUCGCGGCAUAUGUGCAAACCUUGCCACGACUAUGUGC (ssRNA, 2'-F C and U; 2'-OH G; 2'-H (deoxy) A) [SEQ ID NO: 19] | binds

molecular target: T1, NGF (nerve growth factor); assay: cell_activity; neurite outgrowth inhibition; details: tags: R&D Systems; chain copies: 2
Method: The cells (2500 cells per well) were cultured for one day in an RPMI-1640 medium containing 2.5% horse serum and 1.25% fetal bovine serum in a 96 well flat-bottom plate coated with collagen type IV. […] Two days later, the cytoplasm and nuclei were stained using Cellomics Neurite Outgrowth Kit (manufactured by Thermo Scientific), and neurite length per cell was measured by Cellomics ArrayScan VTI (manufactured by Thermo Scientific). With the neurite length per cell obtained by the addition of NGF alone as inhibitory activity 0%, and that of the cell obtained by NGF free culture for 2 days as inhibitory activity 100%, the inhibitory activity of the aptamer was calculated from the neurite length per cell obtained by culturing with the addition of NGF and the aptamer in mixture.

Binder | IC50 [nM]
B2 | 0.033

molecular target: T1, NGF (nerve growth factor); assay: SPR; strong binding; details: tags: R&D Systems; chain copies: 2

Binder | binding result
GGGUCCUGCUGCGCAGUUUCCGUCUGCGUGGCUGUUACCC (ssRNA, 2'-F C and U; 2'-OH G; 2'-H (deoxy) A) [SEQ ID NO: 39] | binds
GGGUCCUGCUGCGUAGUUUCCAUCUGCGUGGCUGUUACCC (ssRNA, 2'-F C and U; 2'-OH G; 2'-H (deoxy) A) [SEQ ID NO: 40] | binds
GGGUCCUGCUGCGCAGUUUCCCUCUGCGUGGCUGUUACCC (ssRNA, 2'-F C and U; 2'-OH G; 2'-H (deoxy) A) [SEQ ID NO: 42] | binds
GGGUCCUGUUGCGUAGUUUCCUUCUACGUGGCUGUUACCC (ssRNA, 2'-F C and U; 2'-OH G; 2'-H (deoxy) A) [SEQ ID NO: 45] | binds
GGGUCCUGCUGCGAAGUUUCCUUCUUCGUGGCUGUUACCC (ssRNA, 2'-F C and U; 2'-OH G; 2'-H (deoxy) A) [SEQ ID NO: 41] | binds
GGGUCCUGCUGCGGAGUUUCCUUCUUCGUGGCUGUUACCC (ssRNA, 2'-F C and U; 2'-OH G; 2'-H (deoxy) A) [SEQ ID NO: 43] | binds

molecular target: T1, NGF (nerve growth factor); assay: cell_activity; TF-1 cell proliferation inhibition; details: tags: R&D Systems; chain copies: 2
Method: Two NGF receptor (human TrkA and human p75) genes were introduced into TF-1 cells (ATCC Number: CRL-2003), which is a human erythroleukemic cell line, by using a retrovirus vector to give cells that highly express two receptors simultaneously and stably. The cells were suspended in an RPMI-1640 medium containing 20% fetal bovine serum, and seeded in a white 96 well flat-bottom plate at 1000 cells (50 μL) per well. […] With the amount of luminescence per well obtained by the addition of NGF alone and culture of the cells for 3 days as inhibitory activity 0%, and that of the well obtained by NGF free culture for 3 days as inhibitory activity 100%, the inhibitory activity of the aptamer was calculated from the amount of luminescence per well obtained by culturing with the addition of NGF and the aptamer in mixture.

Binder | IC50 [nM]
B2 | 0.014

molecular target: T1, NGF (nerve growth factor); assay: SPR; strong inhibition of NGF-receptor binding; details: tags: R&D Systems; chain copies: 2
Method: As directed in BIAcore's protocol, Protein A (21181, PIERCE) was immobilized on a CM5 sensor chip. About 700 to 1200 RU of human TrkA fused with the Fc portion of IgG (175-TK, R&D systems) or human P75 (367-NR, R&D systems) was immobilized thereon. As the analyte, a mixture of NGF (0.1 μM) and each aptamer (0.3 μM) was injected after being allowed to stand for 30 minutes. […] When NGF binds stronger to a receptor than an aptamer, the aptamer may be removed and NGF may bind to the receptor. Before starting the inhibition experiment, binding of TrkA or p75 and NGF was confirmed.

Binder | binding result
B3 | binds
B4 | binds
B5 | binds
B6 | binds
B7 | binds

molecular target: T1, NGF (nerve growth factor); assay: cell_activity; neurite; TF-1 <0.3; details: tags: R&D Systems; chain copies: 2

Binder | IC50 [nM]
GGGUCCUGAUUAAGAGUUUCCGUCUCGUAAUCUGUUACCC (ssRNA, 2'-F C/U, dA, 2'-OH G) [SEQ ID NO: 76] | < 0.3
GGGUCCUGGCCAAGAGUUUCCGUCUCGUGGUCUGUUACCC (ssRNA, 2'-F C/U, dA, 2'-OH G) [SEQ ID NO: 78] | < 0.3
GGGUCCUGACUAAGAGUUUCCGUCUCGUAGUCUGUUACCC (ssRNA, 2'-F C/U, dA, 2'-OH G) [SEQ ID NO: 77] | < 0.3
GGGUCCUGGCUAAGAGUUUCCGUCUCGUAGUCUGUUACCC (ssRNA, 2'-F C/U, dA, 2'-OH G) [SEQ ID NO: 80] | < 0.3
GGGUCCUGGUUAAGAGUUUCCGUCUCGUAACCUGUUACCC (ssRNA, 2'-F C/U, dA, 2'-OH G) [SEQ ID NO: 79] | < 0.3
GGGUCCUGGAUAAGAGUUUCCGUCUCGUAUCCUGUUACCC (ssRNA, 2'-F C/U, dA, 2'-OH G) [SEQ ID NO: 82] | < 0.3
GGGUCCUGUACAAGAGUUUCCGUCUCGUGUACUGUUACCC (ssRNA, 2'-F C/U, dA, 2'-OH G) [SEQ ID NO: 83] | < 0.3

molecular target: T1, NGF (nerve growth factor); assay: SPR; more than 40N; high inhibition of receptor binding; details: tags: R&D Systems; chain copies: 2

Binder | binding result
B8 | binds
B9 | binds

molecular target: T1, NGF (nerve growth factor); assay: SPR; strong neurite inhibition at 10 nM; details: tags: R&D Systems; chain copies: 2

Binder | binding result
GGGUCCUGCUGCGUAGUUUCCGUCUGCGGAGCUGUUACCC (ssRNA, 2'-F C/U, dA, 2'-OH G) [SEQ ID NO: 94] | binds
GGGUCCUGCCGCGUAGUUUCCGUCUUCGCGGUUGUUACCC (ssRNA, 2'-F C/U, dA, 2'-OH G) [SEQ ID NO: 93] | binds
GGGUCCUGCUGCGUAGUUUCCGUCUAUGUGGCUGUUACCC (ssRNA, 2'-F C/U, dA, 2'-OH G) [SEQ ID NO: 96] | binds
GGGUCCUGCUGCGUAGUUUCCAUCUUCGUGGCUGUUACCC (ssRNA, 2'-F C/U, dA, 2'-OH G) [SEQ ID NO: 95] | binds
GGGUCCUGCUACGUAGUUUCCGUCUGCGUGGCUGUUACCC (ssRNA, 2'-F C/U, dA, 2'-OH G) [SEQ ID NO: 97] | binds
GGGUCCUGCUACGUAGUUUCCGUCUACGUGGCUGUUACCC (ssRNA, 2'-F C/U, dA, 2'-OH G) [SEQ ID NO: 98] | binds

molecular target: T1, NGF (nerve growth factor); assay: cell_activity; neurite; TF-1 >0.3; details: tags: R&D Systems; chain copies: 2

Binder | IC50 [nM]
GGGUCCUGGAUAAGAGUUUCCGUCUCGUAUCCUGUUACCC (ssRNA, as 82(48) without 5' idT; PS between A13 and G14) [SEQ ID NO: 82(61)] | 0.031
GGGUCCUGGAUAAGAGUUUCCGUCUCGUAUCCUGUUACCC (ssRNA, as 82(48) without 5' idT; PS between U7 and G8) [SEQ ID NO: 82(57)] | 0.045
GGGUCCUGGAUAAGAGUUUCCGUCUCGUAUCCUGUUACCC (ssRNA, as 82(48) without 5' idT; PS between G8 and G9) [SEQ ID NO: 82(58)] | 0.072
GGGUCCUGGAUAAGAGUUUCCGUCUCGUAUCCUGUUACCC (ssRNA, as 82(48) without 5' idT; PS between U33 and G34) [SEQ ID NO: 82(62)] | 0.039
GGGUCCUGGAUAAGAGUUUCCGUCUCGUAUCCUGUUACCC (ssRNA, as 82(48) without 5' idT; PS between U11 and A12) [SEQ ID NO: 82(59)] | 0.034
GGGUCCUGUGGAAGAGUUUCCGUCUCGUCCACUGUUACCC (ssRNA, as 89(4) plus 2'-OMe U4,A15,A31,A37; no 5' idT) [SEQ ID NO: 89(5)] | 0.079
B10 | 0.06
